Literature values as cited in PMC12672491.
Where two headings read alike, the source gives them in different places.

Experiments:
[1] = molecular target: importin-α3 (Homo sapiens) (UniProt O00629)
[2] = molecular target: importin-α3 (Homo sapiens) (UniProt O00629); remark: listed apart in the source

UniProt O00629, sequence (O00629 2-521): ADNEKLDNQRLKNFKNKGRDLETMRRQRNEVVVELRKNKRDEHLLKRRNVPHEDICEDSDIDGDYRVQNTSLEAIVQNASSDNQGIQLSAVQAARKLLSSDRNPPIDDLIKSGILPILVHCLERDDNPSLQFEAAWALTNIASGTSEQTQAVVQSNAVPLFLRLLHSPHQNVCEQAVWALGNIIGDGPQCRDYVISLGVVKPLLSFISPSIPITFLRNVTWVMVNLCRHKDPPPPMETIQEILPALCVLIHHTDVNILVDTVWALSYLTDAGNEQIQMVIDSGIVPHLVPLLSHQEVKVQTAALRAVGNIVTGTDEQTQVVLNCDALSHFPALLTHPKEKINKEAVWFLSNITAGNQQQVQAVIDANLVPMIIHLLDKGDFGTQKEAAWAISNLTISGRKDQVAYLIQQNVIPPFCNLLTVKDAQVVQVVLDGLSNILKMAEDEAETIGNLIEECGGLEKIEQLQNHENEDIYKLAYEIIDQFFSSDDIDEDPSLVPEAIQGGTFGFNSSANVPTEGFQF

Snail (from UniProt O95863)
Kd [1]: 2100 nM
Kd [2]: 800 nM
